This note sets out measurements from patent publication US20230340159A1 (published 2023).

For experiment [1], the target named is T1, human EpCAM (human, UniProt P16422 24-265, limits assumed).
T1 sequence (looked up): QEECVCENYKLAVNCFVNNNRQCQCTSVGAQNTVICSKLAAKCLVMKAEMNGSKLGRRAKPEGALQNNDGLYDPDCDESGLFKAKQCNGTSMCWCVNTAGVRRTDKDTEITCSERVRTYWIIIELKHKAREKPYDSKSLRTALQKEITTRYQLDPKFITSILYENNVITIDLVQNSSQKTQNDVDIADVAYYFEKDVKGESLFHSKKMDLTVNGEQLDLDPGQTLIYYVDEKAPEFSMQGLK
Nature of the experiment: column 'Human binding affinity (nM)'; method not stated.

For experiment [2], the target named is cyno EpCAM (cyno). Nature of the experiment: ratio of cyno to human binding affinity.
The target of experiment [3] is cyno EpCAM (cyno). Nature of the experiment: column 'Cyno binding affinity (nM)'; method not stated.

B1: hVIB-23 (VHH)
VHH: QVQLVESGGGLVQPGGSLTLSCVISGSFSALWAMRWYRQAPGQQRELVASSRGGTTSYADSVKGRFTISRDNSKNTLYLQMNSLRPEDTAVYYCNAIDGHLAYWGQGTLVTVSS
notes: Tied by label only (hVIB-23 = h23); also called EpCAM h23; sdABD-EpCAM h23
Regarding B1, the Kd in experiment [1] came out at 4.1 nM; in experiment [3], 58.8 nM. Also, in experiment [2], the Cyno/Human cross reactivity was 12.6 ratio cyno/human.

B2: hVIB-13 (VHH)
VHH: QVQLVESGGGLVQPGGSLTLSCAASGTGSIFSINLMGWYRQAPGKQRELVARITSGDSTVYADSVKGRFTISRDNSKNTLYLQMNSLRPEDTAVYYCNLLLRSSPGATTPYWGQGTLVTVSS
notes: Tied by label only (hVIB-13 = h13); also called EpCAM h13; sdABD-EpCAM h13
B2: the Kd turned out to be 2.8 nM in experiment [1] and 12.7 nM in experiment [3]. For the same molecule, in experiment [2], the Cyno/Human cross reactivity is 4.5 ratio cyno/human.

By Kd is commonly meant a measure of binding affinity in units of concentration.
